Molecular target: T1, GST-tagged PAK1 (Y270-H545) (human, UniProt Q13153-1 270-545)
T1 construct: human PAK1 C terminus with the entire kinase domain, residues Y270-H545; vector pGEX4T1; also called GST-PAK1; GST-PAK1 kinase domain; source: E. coli BL21, purified; not shown: GST, N-terminal, kept
Assay: ITC; 25 μM GST-PAK1 in the cell titrated with 100 μM sortilin-cd or peptide in 28 steps of 10 μl at 34°C; 100 mM NaCl, 50 mM Tris-HCl pH 7.5 (pH 7.4 in the results); one set of sites model
Conditions: both partners purified

T1 sequence (Q13153 270-545): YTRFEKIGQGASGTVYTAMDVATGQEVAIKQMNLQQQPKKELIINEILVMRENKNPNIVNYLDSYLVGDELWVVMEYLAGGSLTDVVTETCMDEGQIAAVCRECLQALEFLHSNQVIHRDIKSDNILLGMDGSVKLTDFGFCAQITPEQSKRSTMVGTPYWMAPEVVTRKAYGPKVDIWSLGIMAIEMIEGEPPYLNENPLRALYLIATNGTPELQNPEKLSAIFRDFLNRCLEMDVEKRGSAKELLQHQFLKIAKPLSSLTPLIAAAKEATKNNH

B1: complete sortilin cytoplasmic domain (K779-E831), GST tag removed (domain or fragment, human, UniProt Q99523-1 779-831, looked up)
chain: KKYVCGGRFLVHRYSVLQQHAEANGVDGVDALDTASHTNKSGYHDDSDEDLLE
notes: human sortilin cytoplasmic domain K779-E831 (K1-E53 of the cytoplasmic domain); vector pGEX4T1; also called sortilin-cd; wt sortilin-cd; source: E. coli BL21, purified, GST tag removed by thrombin cleavage; not shown: GST, N-terminal, cleaved
Kd: ~2000 nM
